Results from US20250262271A1 (ARIZONA BOARD OF REGENTS ON BEHALF OF THE UNIVERSITY OF …, published 2025).

Molecular target: T1, Kog1-FLAG (Saccharomyces cerevisiae, UniProt P38873 1-1557)
T1 construct: Bait of the TORC1 immunopurifications; also called TORC1 subunit Kog1/Raptor with FLAG tag; TORC1 (as purified through Kog1-FLAG); not shown: FLAG tag
Assay: co-immunopurification after DSP crosslinking, Western blot; long term amino acid and glucose starvation

T1 sequence (P38873 whole entry): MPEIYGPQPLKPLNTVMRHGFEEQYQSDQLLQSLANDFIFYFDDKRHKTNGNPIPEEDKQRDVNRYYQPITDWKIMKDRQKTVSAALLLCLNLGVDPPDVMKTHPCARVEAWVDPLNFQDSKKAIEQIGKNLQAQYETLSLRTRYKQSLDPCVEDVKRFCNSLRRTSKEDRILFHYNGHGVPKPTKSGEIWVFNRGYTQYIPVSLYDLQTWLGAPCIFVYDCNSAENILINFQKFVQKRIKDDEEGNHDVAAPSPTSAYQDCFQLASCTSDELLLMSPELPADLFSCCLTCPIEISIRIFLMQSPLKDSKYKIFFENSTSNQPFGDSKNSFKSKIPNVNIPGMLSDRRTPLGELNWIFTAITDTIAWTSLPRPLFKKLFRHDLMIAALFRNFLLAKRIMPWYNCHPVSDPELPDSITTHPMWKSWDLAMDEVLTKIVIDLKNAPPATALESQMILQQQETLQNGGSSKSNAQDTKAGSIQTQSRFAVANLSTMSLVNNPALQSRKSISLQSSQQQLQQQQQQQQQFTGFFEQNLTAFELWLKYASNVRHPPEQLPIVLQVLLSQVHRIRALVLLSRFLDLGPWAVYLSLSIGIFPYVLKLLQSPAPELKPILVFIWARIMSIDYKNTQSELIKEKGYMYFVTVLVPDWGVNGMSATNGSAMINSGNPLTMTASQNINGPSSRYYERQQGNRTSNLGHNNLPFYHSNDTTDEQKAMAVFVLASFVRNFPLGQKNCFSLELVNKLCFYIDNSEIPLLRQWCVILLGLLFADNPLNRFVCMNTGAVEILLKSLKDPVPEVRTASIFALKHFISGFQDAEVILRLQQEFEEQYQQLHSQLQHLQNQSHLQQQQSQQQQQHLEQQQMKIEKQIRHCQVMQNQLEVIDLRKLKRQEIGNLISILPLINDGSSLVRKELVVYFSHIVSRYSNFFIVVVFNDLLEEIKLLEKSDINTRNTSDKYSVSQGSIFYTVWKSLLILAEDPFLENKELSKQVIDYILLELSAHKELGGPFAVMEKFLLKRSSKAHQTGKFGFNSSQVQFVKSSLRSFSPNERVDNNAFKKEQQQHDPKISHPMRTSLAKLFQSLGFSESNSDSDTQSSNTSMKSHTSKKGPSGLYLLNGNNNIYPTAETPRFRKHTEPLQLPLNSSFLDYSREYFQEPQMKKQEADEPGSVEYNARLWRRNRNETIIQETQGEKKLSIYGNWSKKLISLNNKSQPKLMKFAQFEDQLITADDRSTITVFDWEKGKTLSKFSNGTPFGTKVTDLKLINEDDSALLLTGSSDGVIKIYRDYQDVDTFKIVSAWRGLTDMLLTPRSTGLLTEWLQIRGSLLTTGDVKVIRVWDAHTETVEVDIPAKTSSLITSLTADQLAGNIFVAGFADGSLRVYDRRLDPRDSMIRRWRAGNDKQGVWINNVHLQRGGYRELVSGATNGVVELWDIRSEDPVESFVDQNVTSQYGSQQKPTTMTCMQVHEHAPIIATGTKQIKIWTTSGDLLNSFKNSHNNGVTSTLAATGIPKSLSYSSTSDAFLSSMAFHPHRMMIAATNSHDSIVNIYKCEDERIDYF

co-purified amount relative to log phase growth: 50%
B1: GFP-Ait1 (other)
chain: MVRLNHAASYFMPIFCSTRPHIVILSALFSISLFSLFYASSELLLHQYDDPLMFKPNSQDYFRTFLLGLFSPFLYYFLKTFLFNINQRFLILNLIVDFPINDVFMLLILIGLAYPQVQDHEGGTIKHKECSWHIIPRQAYIFGISWALGEFTICIIGNLFNYQEIADPNINSGFTHQESANTYCNNNDMSHNDDCGCSTEYRPNVVDRSDITLSKCIEVRNDSSSISNNVYSSEYHPIKPLRSSSSTYGSIRQQPHENKKQLHVPDNSQDDTIIMMNPIDNSLKLTTLDTGDLSFPIDEEQPILKKSFGYTWAVPNENTQNTTKSFTPIKRFIAFSTAYQLVTGLLLMILVVGSNIMLTIGESLILSMYFVYVRGHEGLFTPVVNYFGSRTISNFILCVIIPFISLNFLINTSIYLRRELDDWFNNSQGEFEDDDENTISKRVATNQEYQHPLSANYISMDSPDVINSSPGHFGMNSGQLLGNTTLYYGSLNGDDDDMTNDSALLRFCKKLVKNWRALARNDSFVLGVMVSWSLLVFVTGILSTVYI
notes: Expressed in S. cerevisiae (W303) and immunopurified from DSP-crosslinked, digitonin-treated lysate; also called Ait1-GFP; GFP-tagged Ydl180w; not shown: GFP tag
